Reference: publication PMC7782867 (2020)
One block for each binder: values may come before it. Square brackets hold non-standard residues; d marks the D form. Ends that are not written are not given here. pS = N[C@@H](COP(=O)(O)O)C(=O)O

Key:
CRIPT [1] = biological target: T1, CRIPT (Drosophila melanogaster); experiment: ITC
T1 chain: YRQSST

[2] = biological target: T2, ancestral Eukaryota CRIPT; experiment: stopped-flow
T2 chain: YKQSSV

CRIPT [3] = biological target: T3, CRIPT (Homo sapiens); experiment: ITC
T3 chain: YKQTSV

CRIPT [4] = biological target: T4, CRIPT (Octopus bimaculoides); experiment: stopped-flow
T4 chain: YRQSSV

CRIPT [5] = biological target: T3, CRIPT; experiment: stopped-flow
CRIPT [6] = biological target: T5, CRIPT (Hydra vulgaris); experiment: stopped-flow
T5 chain: YRQTSC

CRIPT [7] = biological target: T6, CRIPT (Drosophila melanogaster); experiment: ITC
T6 chain: YRQS[pS]T

CRIPT [8] = biological target: T7, CRIPT (Drosophila melanogaster); experiment: ITC
T7 chain: GKKIMNTKNYKQSST

Kd (CRIPT [1]): 27000 nM
Kd [2]: 670 nM
B1: DLG PDZ3 PDZ3 (protein)
chain: EPRTITIQKGPQGLGFNIVGGEDGQGIYVSFILAGGPADLGSELKRGDQLLSVNNVNLTHATHEEAAQALKTSGGVVTLLAQYRPEEY

B2: DLG4 PDZ3 PDZ3 (protein)
chain: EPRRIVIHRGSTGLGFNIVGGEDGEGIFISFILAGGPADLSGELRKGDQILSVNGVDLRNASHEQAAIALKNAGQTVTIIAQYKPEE
Kd (CRIPT [3]): 700 nM
Kd [2]: 2180 nM
Kd (CRIPT [4]): 1240 nM
Kd (CRIPT [5]): 395 nM
Kd (CRIPT [6]): 360 nM

Kd (CRIPT [7]): 40000 nM
Kd (CRIPT [8]): 34000 nM
B3: DLG PDZ3 α3 PDZ3-α3 (protein)
chain: REPRTITIQKGPQGLGFNIVGGEDGQGIYVSFILAGGPADLGSELKRGDQLLSVNNVNLTHATHEEAAQALKTSGGVVTLLAQYRPEEYNRFEARI
